From patent publication US20090304577A1
Each block holds one binder with its values, some of them ahead of it. No end group written: not given here.

How the values were obtained:
[1] = target: monoclonal anti-TCR Vβ antibody; test: ELISA OD with α-TCR Vβ on plate coated with CDR-H2 homodimer, against control (culture medium/PBS)
[2] = target: monoclonal anti-TCR Vβ antibody; test: ELISA; plate coated with CDR-H2 homodimer, tested against α-TCR Vβ; mean ± SD of three observations
[3] = target: monoclonal anti-TCR Vβ antibody; test: ELISA OD with α-TCR Vβ on plate coated with CDR-H3 homodimer, against control (culture medium/PBS)
[4] = target: monoclonal anti-TCR Vβ antibody; test: ELISA; plate coated with CDR-H3 homodimer, tested against α-TCR Vβ; mean ± SD of three observations
[5] = target: monoclonal anti-TCR Vβ antibody; test: ELISA OD with α-TCR Vβ on plate coated with CDR-L3 homodimer, against control (culture medium/PBS)
[6] = target: monoclonal anti-TCR Vβ antibody; test: ELISA; plate coated with CDR-L3 homodimer, tested against α-TCR Vβ; mean ± SD of three observations

Ratio Test/Control [1]: 1.83
optical density [2]: 0.307 OD
B1: CDR-H2 homodimer peptide (SEQ ID NO:8 with an added N terminal cysteine, dimerised) (peptide)
peptide: CNIYPSDSYTNYNQKFKD
modifications: also: homodimer, linkage not given here

Ratio Test/Control [3]: 2
optical density [4]: 0.182 OD
B2: CDR-H3 homodimer peptide (SEQ ID NO:10 with an added N terminal cysteine, dimerised) (peptide)
peptide: CLRGLLPDY
modifications: also: homodimer, linkage not given here

Ratio Test/Control [5]: 1.74
optical density [6]: 0.243 OD
B3: CDR-L3 homodimer peptide (SEQ ID NO:16 with an added N terminal cysteine, dimerised) (peptide)
peptide: CQQYNSYPLT
modifications: also: homodimer, linkage not given here
